# Like-named read-outs stand apart in the source and are kept apart here.
# Key:
# [1] = target: Active phosphorylated His6-tagged ERK2 D319N (rat (p-0033 says mouse)) (UniProt P63086)
# [2] = target: Active phosphorylated His6-tagged ERK2 E320K (rat (p-0033 says mouse)) (UniProt P63086)
# [3] = target: Active phosphorylated His6-tagged ERK2 R133K (rat (p-0033 says mouse)) (UniProt P63086)
# [4] = target: Active phosphorylated His6-tagged ERK2 WT (rat (p-0033 says mouse)) (UniProt P63086)
# [5] = target: Active phosphorylated His6-tagged ERK2 D319N (rat (p-0033 says mouse)) (UniProt P63086); remark: listed apart in the source
# [6] = target: Active phosphorylated His6-tagged ERK2 E320K (rat (p-0033 says mouse)) (UniProt P63086); remark: listed apart in the source
# [7] = target: Active phosphorylated His6-tagged ERK2 R133K (rat (p-0033 says mouse)) (UniProt P63086); remark: listed apart in the source
# [8] = target: Active phosphorylated His6-tagged ERK2 WT (rat (p-0033 says mouse)) (UniProt P63086); remark: listed apart in the source
# [9] = target: Active phosphorylated His6-tagged ERK2 D319N (rat (p-0033 says mouse)) (UniProt P63086); remark: listed apart in the source
# [10] = target: Active phosphorylated His6-tagged ERK2 E320K (rat (p-0033 says mouse)) (UniProt P63086); remark: listed apart in the source
# [11] = target: Active phosphorylated His6-tagged ERK2 R133K (rat (p-0033 says mouse)) (UniProt P63086); remark: listed apart in the source
# [12] = target: Active phosphorylated His6-tagged ERK2 WT (rat (p-0033 says mouse)) (UniProt P63086); remark: listed apart in the source
# [13] = target: Active phosphorylated His6-tagged ERK2 D319N (rat (p-0033 says mouse)) (UniProt P63086); remark: listed apart in the source
# [14] = target: Active phosphorylated His6-tagged ERK2 E320K (rat (p-0033 says mouse)) (UniProt P63086); remark: listed apart in the source
# [15] = target: Active phosphorylated His6-tagged ERK2 R133K (rat (p-0033 says mouse)) (UniProt P63086); remark: listed apart in the source
# [16] = target: Active phosphorylated His6-tagged ERK2 WT (rat (p-0033 says mouse)) (UniProt P63086); remark: listed apart in the source
# [17] = target: Active phosphorylated His6-tagged ERK2 D319N (rat (p-0033 says mouse)) (UniProt P63086); remark: listed apart in the source
# [18] = target: Active phosphorylated His6-tagged ERK2 E320K (rat (p-0033 says mouse)) (UniProt P63086); remark: listed apart in the source
# [19] = target: Active phosphorylated His6-tagged ERK2 R133K (rat (p-0033 says mouse)) (UniProt P63086); remark: listed apart in the source
# [20] = target: Active phosphorylated His6-tagged ERK2 WT (rat (p-0033 says mouse)) (UniProt P63086); remark: listed apart in the source
# [21] = target: Active phosphorylated His6-tagged ERK2 D319N (rat (p-0033 says mouse)) (UniProt P63086); remark: listed apart in the source
# [22] = target: Active phosphorylated His6-tagged ERK2 E320K (rat (p-0033 says mouse)) (UniProt P63086); remark: listed apart in the source
# [23] = target: Active phosphorylated His6-tagged ERK2 R133K (rat (p-0033 says mouse)) (UniProt P63086); remark: listed apart in the source
# [24] = target: Active phosphorylated His6-tagged ERK2 WT (rat (p-0033 says mouse)) (UniProt P63086); remark: listed apart in the source
# [25] = target: Active phosphorylated His6-tagged ERK2 R133K (rat (p-0033 says mouse)) (UniProt P63086); remark: listed apart in the source
# [26] = target: Active phosphorylated His6-tagged ERK2 WT (rat (p-0033 says mouse)) (UniProt P63086); remark: listed apart in the source
substance,measurement,setting,value
MLXIPL,IC50,[1],26 µM
same,IC50,[2],28 µM
same,IC50,[3],23 µM
same,IC50,[4],18 µM
ZBED6,IC50,[5],23 µM
same,IC50,[6],56 µM
same,IC50,[7],6.2 µM
same,IC50,[8],6.8 µM
CBX7,IC50,[9],9.8 µM
same,IC50,[10],14 µM
same,IC50,[11],5.7 µM
same,IC50,[12],5.1 µM
AEBP1,IC50,[13],120 µM
same,IC50,[14],160 µM
same,IC50,[15],110 µM
same,IC50,[16],16 µM
DISC1,IC50,[17],79 µM
same,IC50,[18],110 µM
same,IC50,[19],74 µM
same,IC50,[20],23 µM
ELMSAN1,IC50,[21],30 µM
same,IC50,[22],40 µM
same,IC50,[23],27 µM
same,IC50,[24],24 µM
ANAPC5,IC50,[25],340 µM
same,IC50,[26],32 µM

# — article PMC11982978, “Cancer hotspot mutations rewire ERK2 specificity by selective exclusion of docking interactions” (The Journal of Biological Chemistry, 2025)
